Values of other authors as cited in publication PMC5033469.

Target: CD11c I domain (Homo sapiens) (UniProt P20702)
Sequence (P20702 165-339): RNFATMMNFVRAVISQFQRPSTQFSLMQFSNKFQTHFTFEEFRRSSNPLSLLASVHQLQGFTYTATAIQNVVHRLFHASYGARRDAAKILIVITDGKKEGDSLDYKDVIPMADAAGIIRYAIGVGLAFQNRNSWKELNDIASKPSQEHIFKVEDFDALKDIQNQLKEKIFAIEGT

Sequence of fibrinogen (P02671 36-866): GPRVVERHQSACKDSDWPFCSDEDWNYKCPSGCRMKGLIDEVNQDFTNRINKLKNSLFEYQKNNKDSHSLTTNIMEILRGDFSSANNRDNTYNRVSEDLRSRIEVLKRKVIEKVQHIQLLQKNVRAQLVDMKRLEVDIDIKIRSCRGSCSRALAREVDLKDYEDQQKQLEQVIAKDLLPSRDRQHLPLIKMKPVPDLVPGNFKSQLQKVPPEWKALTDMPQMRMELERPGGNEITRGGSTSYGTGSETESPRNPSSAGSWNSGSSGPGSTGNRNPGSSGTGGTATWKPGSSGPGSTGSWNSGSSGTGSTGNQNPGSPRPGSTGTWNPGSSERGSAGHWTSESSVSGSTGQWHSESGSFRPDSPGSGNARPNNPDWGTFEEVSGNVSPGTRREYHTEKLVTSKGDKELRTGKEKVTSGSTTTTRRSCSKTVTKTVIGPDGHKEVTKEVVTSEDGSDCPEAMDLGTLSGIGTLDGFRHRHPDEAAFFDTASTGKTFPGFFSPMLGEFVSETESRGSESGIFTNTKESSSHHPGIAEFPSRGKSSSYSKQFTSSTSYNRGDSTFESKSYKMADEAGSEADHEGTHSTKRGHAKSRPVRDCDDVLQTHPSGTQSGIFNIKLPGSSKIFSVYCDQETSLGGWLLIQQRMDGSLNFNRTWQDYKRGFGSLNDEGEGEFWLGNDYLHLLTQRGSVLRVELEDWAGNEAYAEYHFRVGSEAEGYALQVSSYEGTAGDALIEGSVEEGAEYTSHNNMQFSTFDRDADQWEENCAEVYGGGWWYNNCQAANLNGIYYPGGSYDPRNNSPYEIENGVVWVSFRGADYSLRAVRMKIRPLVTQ
Sequence of fibrinogen (P02675 45-491, further chain): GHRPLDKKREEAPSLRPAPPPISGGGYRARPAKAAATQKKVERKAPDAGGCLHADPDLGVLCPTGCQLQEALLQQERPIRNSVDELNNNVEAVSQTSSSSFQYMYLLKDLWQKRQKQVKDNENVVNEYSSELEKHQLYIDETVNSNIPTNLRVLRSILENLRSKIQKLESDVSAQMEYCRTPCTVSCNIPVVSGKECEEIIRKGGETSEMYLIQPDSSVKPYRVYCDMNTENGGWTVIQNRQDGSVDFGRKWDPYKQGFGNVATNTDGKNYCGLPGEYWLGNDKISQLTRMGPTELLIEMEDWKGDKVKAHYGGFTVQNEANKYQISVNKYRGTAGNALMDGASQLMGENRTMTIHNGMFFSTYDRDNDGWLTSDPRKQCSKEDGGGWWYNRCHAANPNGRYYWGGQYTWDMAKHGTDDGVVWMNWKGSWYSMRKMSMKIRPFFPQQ
Sequence of fibrinogen (P02679 27-453, further chain): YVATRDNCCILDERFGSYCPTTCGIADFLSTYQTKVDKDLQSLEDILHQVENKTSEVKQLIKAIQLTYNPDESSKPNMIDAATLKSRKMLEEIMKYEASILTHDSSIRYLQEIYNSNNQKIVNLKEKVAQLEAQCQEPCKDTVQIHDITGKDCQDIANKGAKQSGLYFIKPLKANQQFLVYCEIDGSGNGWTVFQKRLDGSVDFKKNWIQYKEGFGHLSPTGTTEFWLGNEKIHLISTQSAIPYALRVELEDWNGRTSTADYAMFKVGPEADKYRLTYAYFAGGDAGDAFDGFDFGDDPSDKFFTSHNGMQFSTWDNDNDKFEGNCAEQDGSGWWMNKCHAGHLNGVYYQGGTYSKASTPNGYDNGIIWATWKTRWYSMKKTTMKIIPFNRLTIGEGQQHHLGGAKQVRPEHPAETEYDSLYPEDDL

fibrinogen (from UniProt P02671)
Kd: 50 µM
